One block for each molecule: values may come before it.
What was measured:
[1] = target: CdvB1 from Metallosphaera sedula, MBP tag cleaved off with 3C protease (Metallosphaera sedula); test: co-sedimentation; 1 uM MBP-CdvB1 with 0.1 uM 3C protease, 50 mM HEPES pH 7.4, 50 mM NaCl, 5 mM MgCl2, Ficoll 41.25 mg/mL, overnight at 4 °C; 0.6 uM CdvC added, nucleotide or buffer, 2 min at 50 °C; 140 000 g 30 min at 4 °C; pellet and supernatant on SDS/PAGE
[2] = target: CdvB1 from Metallosphaera sedula, MBP tag cleaved off with 3C protease (Metallosphaera sedula)
[3] = target: CdvB1 from Metallosphaera sedula, MBP tag cleaved off with 3C protease (Metallosphaera sedula); remark: listed apart in the source

filament-to-monomer ratio (with CdvC and ADP or ATPγS, no hydrolysable nucleotide) [1]: 2
Molecule: CdvB1 from Metallosphaera sedula, MBP tag cleaved off with 3C protease (natural protein)

ATP consumed by CdvC (0.1 uM) in 25 min at 50 °C with CdvB1 filaments (1 uM) against CdvC alone [2]: 8 fold
filament-to-monomer (pellet-to-supernatant) ratio of CdvB1 in the sedimentation assay after CdvC with ATP, 2 min at 50 °C [3]: 0.1
B1: CdvC from Metallosphaera sedula (enzyme)
chain: MSAQVMLEEMARKYAIAAVRADKEGRREDAINNYKKAIEVLTQIVTLYPDMVARNAYEQMINEYKKRLETLNQMVPEGGEETEKAEEDIVMKEKPKVTLNEIVGLEDVKEALKEAVVYPSKRPDLFPLGWPRGILLYGPPGCGKTMIAAAVANELDSEFIHVDAASIMSKWLGEAEKNVAKIFKTARELSKKENKPAIIFIDELDALLASYTSEVGGEARVRNQFLKEMDGLADKNEISKVYVIGATNKPWRLDEPFLRRFQKRIYITLPDKAHRLELLKHYSSKVKLDPNVNLEELAELTDGYTASDIRDIVQSAHMRVVKEMFEKNLQEPRAINMDDFREVLKVRKPSVNQDMLKAYAAWHEKFKAL
